# The NTF2 design screens of Basanta et al. (2020)
# Assay: protease stability score; higher = more stable; yeast display proteolysis, trypsin and chymotrypsin;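 further: relative to predicted unfolded state with 0 unfolded-like and 1 meaning tenfold more protease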
row,Sequence,protease stability score
1,TEDMEVMRRILELFIELVTTGDWEILRELLDPNVRIEIGDKQLHGRELVSNSLLLLGVDHIRVKDMKIQGEKLHIETENEINGVKLNTHILLLKINGRWLIKDLSVK,1.29
2,DVEQEISKTLVHLWVFALLTGDEHLIRKLADPHVRLDIDGVTIVGMDLVAKRITELRIERFTIEDVKFEIQGDKLISIMDTKVDGRIGDKRIETRVIILLIFEKIDGRWQLSTSSEEKR,1.16
3,DEDEHLARRLSTEVEKLMLTGDEHLIKRLLDPDARINVNGVDLHGRHHYITHLHRFLLEAGVDNVHSELTTWRVYGDYVHVHGTLHINGVRFNHHFLFEKVDGRWIIKWLDDR,1.12
4,SEEEEQFKKVFEIVIRFIITGDEHSMLKNADPNARLEIGDKEVIGMENLLERLTRIIDQFKNVRIEFHVKDHDLQGDKLHLETEIVLKFDGRELRIILHIVWTKINGRWIITSLSER,1.17
5,DDLEKIVLRMLNLWLKSILTGDEEFEEHYADPNVRYEINGVELHGRERFSQWLTDLRRKFKNIRIEIRVHHTEAQGDKMRSEEELIIDFEGRQINREVRIDMKVIDGRIKEVKVHII,1.42
6,DNDQEKIKELARLAEQVMQTGNEKLLRELFDPHARIDIDGKTLHGWKDLLEFTRHELERIDHVVFTVRRVDLQGDKVRVETEVNIDINGKKMTLETTLLIDKFDGRWFLRTIEWE,1.8
7,SEEEKHMHKMHELRNKRTKTGDEHWFEKLADPHYRVEIGDKELIGWEYLVRVRREFGIDHLETVHIDSTEIQGEKVIEHVTIHGEFDGVRNDLKVELIVIKFNGRWVMHSTKVK,0.761
8,DREEEEVRRARKLWVDWAETGDEESIFKNADPRTRVDINGKILHGMEIYKKESEKLGIDNIEFRVDDVRVFDGRLEMDGELIVNGRSIRVHIYSRKIDGRWVLTSINFI,0.872
9,DETETAKRFALEMLLHTLRTGDEEDKLRMLDPNARLVIGDKEFWGWKEFKKFVEKESRELRIQDSRIQHVELQGDKLHLDSVIIGQVNGVTVELKVEFVMNKIDGKWRVEEIIVR,1.34
10,DHEEEQVRLAFEIFKTLQETGDEELLHHFFDPNARSDVDGREVVGRHAVEEWQRDLGVDHIHVHKFTFIDGRVEMHFTYTQGDKVIKVHIYVHKVDGKWDMHRIHVR,1.24
11,DETQELAEEIVRKMIENWLTGNEEELHKMADPHVRVHINGVDLHGREVWEKWVHDELEKIPGIRREFELKRLEIYGDYIDIDGILILTFNGRKHTHKVRIHLHIVDGKLHRLEIRNK,1.28
12,DETEERTRKAIKLSLEVLRTGDERVISEMADPHVRLDFNGRQLHGREEFVHHIVRFFEEAGINYLHIEDWDVFNGVIIEHVRWNFNGREVEVEIIANKVNGKWLIKEFRIK,1.07
13,SEEEKEAKDALEKLWHYWHTGDEHELVRLADPTMRHIINGRHFHGREFFSELLRRLGFKHIIYHFEDMDVQGDKVHIHGHIESEFDGRRHHMNTHLIILKVNGKWIYESIKFD,1.32
14,HDKEHLSEYLLDLTEYLIRTGDFKLMLKMADPHVRNHIIIGEFELEYHGWHVYIHWLEKVLRRFGVDHVHVTHRNAQGDKVEMDTHLEVNGRRHDVDQHWVYINGRIEHVRFRIR,0.794
15,HEEEEREKEISDTFLMAWRTGDWKFFHELADPHVRVEIGDKRFIGRELLTKHMRHNVNKVKGMTHTLTHIIIQGDKIHLDGELIVDGRSHKVDFHIIVIDGRLHSLHVIIS,0.574
16,SEKHEHAHRIMEIILRAWETGDEESLRELLDPNVRFIQGDKDVVGREEMSRVLHEFREHIRLKSIHIHDKHAINGVFHLDIRIWGNVNGRDDHIEVNYTVVIVDGKIRDLEVRIH,1.06
17,KHEEDEWKRMIDIVLHMLKTGNFELLERLADPHARSHIDGVRIHGREKFVEILFEVWHFYKNLTISINHIDVFNGVIVIHGRLDINGRQVEVHIVVTKINGKWFLESHSEIFH,0.572
18,DDALRHADTLLDQFEHHMETGDEESMTRLADPDTRTDINGQHFHGRDWWREFMRRVDHHHIRSVDYHSVRLFNGQIHFDVEIDVEIVIGDKRYRTRYHFEVVIVKIDGRWLLHRIKTE,0.861
19,SEEERESEEFWKHLRDVTRTGDFDSLSKLVDPEVRLEWNGRHFIGREHLAELVIDMLNRIDHVELRLHSYRLQGNYLHLRTILIIRINGQQITHDTRITFIKVDGRWIIESKHVH,0.869
20,DETHRDMEEALRLFVRLLETGNEEILSKLVDPHVKIDFENHQHIGMEDWMKFMHHIRLDSMRIDDFKLIGDKARSDTTLDGNVNGRHFKFKTWIVAQKVDGRWLEHSVEYR,0.885
21,DSLEKHTEDSLRFFLHILRTGDEEELSDLLDPRTRYEFNGKEFHGREQVVEVLIRLAEHIRIEELHVTHVEVYGDKVNSETLLIVDVDGQKRILHTRVLATKVNGKWLFQRIRIV,2.17
22,DEEEHHIKTLLELHWEIWKTGDEDRFRELADPNTKLIVNGREVIGRERVAKVIHDILRHMRFHDFTLERDKIYNGQVDLHGTEYGHINGKNIERTHVFHIVIVNGVLKSIELRIH,1.01
23,EDEEQHTEELAHIFTEDYFTGDESSLERYLDPHVRLRIEYGDWEFSVHGRERAVDKIHWTMKQMGVKHVYLRHIRVQGDKVELNLELRVGDKVREQRIEIKVVNGRIKLVNIVIH,2.15
24,NEEEEESKFANELWEETVKTGDERLNRSLADPNTRFHINGVDLHGWESMDETARRYKNITVRLHDMRTYNGRVHLDFEMRVGEFTTKVIIIARKFDGRWILKSIIVH,1.2
25,SEDEEMLRKILELLVESLLTGDWKTVARLADPHVRLEIGDKIFHGRERFIDHLKLLGIDHIEIRLRDMKIIGDKLDTEVEVVERVGDKEIHRDTTLHIRKVNGRWLIKKVILE,2.01
